Source: paper PMC12658125, “Oligomerisation of Ku from Mycobacterium tuberculosis promotes DNA synapsis” (Nature Communications, 2025)

T1: Ku-Mtb (Mycobacterium tuberculosis, UniProt P9WKD9 1-273)
T1 sequence: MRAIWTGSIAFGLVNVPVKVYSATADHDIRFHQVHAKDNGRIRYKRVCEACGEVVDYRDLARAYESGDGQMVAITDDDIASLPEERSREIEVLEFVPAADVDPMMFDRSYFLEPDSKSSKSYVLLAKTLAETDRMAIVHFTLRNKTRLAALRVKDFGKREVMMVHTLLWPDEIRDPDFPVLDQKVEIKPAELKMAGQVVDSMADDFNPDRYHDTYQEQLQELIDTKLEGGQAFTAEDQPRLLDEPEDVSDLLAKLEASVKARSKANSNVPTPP

B1: Blunt-DNA 50 bp (dsDNA)
DNA 1: CCTCTAGACCTGTACTACTCGAGAGATCGATCGACAGACGATGACTTAGC
DNA 2: GCTAAGTCATCGTCTGTCGATCGATCTCTCGAGTAGTACAGGTCTAGAGG
B2: FAM-DNA, 32 bp with 3' 20dT overhang (mixed)
DNA 1: GGAATGTAACCATCGTTGGTCGGCAGCAGGGCTTTTTTTTTTTTTTTTTTTT
DNA 2: GCCCTGCTGCCGACCAACGATGGTTACATTCC

Assays:
[1] = biological target: T1, Ku-Mtb; assay: EMSA; 5 mM MgCl2; conditions: protein: recombinant; tags: His (Ni-NTA purified, pET45b); chain copies: 2; blunt
[2] = biological target: T1, Ku-Mtb; assay: FIDA (hydrodynamic radius); conditions: protein: recombinant; tags: His (Ni-NTA purified, pET45b); chain copies: 2; label: 5' FAM on strand 1; 3' overhang 20 nt on strand 1
[3] = biological target: T1, Ku-Mtb; assay: EMSA; conditions: protein: recombinant; tags: His (Ni-NTA purified, pET45b); chain copies: 2; label: 5' FAM on strand 1; 3' overhang 20 nt on strand 1

Row | Binder | binding result [1] | binding result [2] | binding result [3]
1 | B1 | binds | – | –
2 | B2 | – | binds | binds
